Reference: patent publication US20200239573A1 (CRESCENDO BIOLOGICS, published 2020)

Assays:
[1] = biological target: T1, human PD-1 expressed on cells (CHO human PD-1 cells) (human, UniProt Q15116 21-288); test: cell-based or functional assay
[2] = biological target: T1, human PD-1 expressed on cells (CHO …); test: FMAT inhibition; 200 pM PD-L2 on CHO human PD-1 cells
Protocol: (§1) All reagents and serially diluted VH were prepared in FMAT assay buffer. […] Plates were incubated for 2 hours at room temperature then fluorescence measured in the FL2 (502 nm-537 nm) and FL5 (677-800 nm) channels on the Mirrorball plate reader (TTP) following excitation at 488 nm and 640 nm. Data was expressed as a % of the total binding control (i.e. % control) after subtraction of the background signal determined from the non-specific binding control wells.

[3] = biological target: T1, human PD-1 expressed on cells (CHO …); test: FMAT inhibition; 100 pM PD-L1-Fc on CHO human PD-1 cells
Protocol: as §1

[4] = biological target: T1, human PD-1 expressed on cells (CHO …); test: FMAT 1.57 epitope competition assay on CHO human PD-1 cells; competitor: 1.57-Strep tagged protein; 1 day in mouse serum
Protocol: (§2) For the epitope competition assay reagents were prepared in FMAT assay buffer. […] Plates were incubated for a minimum of 1.5 hours at room temperature then fluorescence measured in the FL2 (502 nm-537 nm) and FL5 (677-800 nm) channels on the Mirrorball plate reader (TTP) following excitation at 488 nm and 640 nm. Data was expressed as a % of the total binding control (i.e. % control) after subtraction of the background signal determined from the non-specific binding control wells.
(§3) Serum stability of VH and multivalent VH constructs was assessed by measurement of their activity following incubation for 0, 1, 4 or 7 days in mouse serum (Sigma M5905).

[5] = biological target: T1, human PD-1 expressed on cells (CHO …); test: FMAT 1.57 epitope competition assay on CHO human PD-1 cells; competitor: 1.57-Strep tagged protein; 0 days in mouse serum
Protocol: as §2, §3

[6] = biological target: T1, human PD-1 expressed on cells (CHO …); test: cell-based or functional assay; remark: listed apart in the source
[7] = biological target: T1, human PD-1 expressed on cells (CHO …); test: cell-based or functional assay; remark: listed apart in the source
[8] = biological target: T2, Strep tagged recombinant human PD-1 (human, UniProt Q15116 25-170, limits assumed); test: SPR Biacore T200, strep-tagged PD-1 amine-coupled, single cycle kinetics
T2 construct: the whole entry is named; also called strep tagged human PD-1; not shown: Strep tag

[9] = biological target: human PD-1 on primary human CD4+ T cells (human, UniProt Q15116 21-288); test: flow cytometry on PHA-stimulated human CD4+ T cells (live cell gate)
Protocol: Binding of monovalent single domain antibodies and multivalent binding agents to T cells was measured using flow cytometry. […] T-cells were stimulated with 2.5 μg/ml PHA for 2-4 days in RPMI media supplemented with 10% FBS, 2 mM Glutamine, 1× Pen/Strep. Cells were transferred into 96 well plates (75000 per well), blocked for 10 mins with PBS/1% BSA, then incubated with serially diluted VH in staining buffer (PBS/1% BSA) for 1 hour at 4° C. Cells were washed with staining buffer by centrifugation then incubated with 10 μg/ml biotinylated Anti His antibody for 40 mins at 4° C. Cells were washed again then stained with Streptavidin Alexa Fluor-488 (10 μg/ml) and 1:5000 diluted Live Dead near IR stain (Molecular Probes cat no. L10119) for 30 mins at 4° C. After further washing cells were fixed and fluorescence measured by flow cytometry.

[10] = biological target: T3, recombinant human PD-1 Fc chimera (human, UniProt Q15116 25-167); test: SPR Biacore T200, PD-1-Fc captured on protein G, single cycle kinetics
T3 construct: Bought protein; also called human PD-1-huFc; huPD-1-Fc; not shown: human Fc
Protocol: Single cycle kinetics assays were used to study the interaction between human Fc tagged human PD-1 with Humabody® on a Biacore T200 instrument (GE Healthcare). Protein G was amine coupled to two flow cells of a CM-5 chip. Human Fc tagged recombinant human PD-1 was captured onto one of the flow cells. The other was used as the reference flow cell. A five point, three-fold dilution series of each Humabody® was made with a top concentration within the range of 50 to 150 nM. The binding kinetics were followed by flowing the Humabody® over the chip surface in HBS EP+ buffer at a flow rate of 30 μl/min. The contact time for each of the association steps was 180 seconds and the dissociation step was 3600 seconds. The data was fitted to a 1:1 binding model after double reference subtraction using the Biacore T200 Evaluation software.

[11] = biological target: human PD-1 expressed on cells (CHO human PD-1 cells) (human) (UniProt Q15116); test: FMAT inhibition assay on CHO human PD-1 cells; blocked ligand: human Fc tagged human PD-L1
Sequence of human PD-1 expressed on cells (CHO human PD-1 cells) (human) (Q15116 21-288): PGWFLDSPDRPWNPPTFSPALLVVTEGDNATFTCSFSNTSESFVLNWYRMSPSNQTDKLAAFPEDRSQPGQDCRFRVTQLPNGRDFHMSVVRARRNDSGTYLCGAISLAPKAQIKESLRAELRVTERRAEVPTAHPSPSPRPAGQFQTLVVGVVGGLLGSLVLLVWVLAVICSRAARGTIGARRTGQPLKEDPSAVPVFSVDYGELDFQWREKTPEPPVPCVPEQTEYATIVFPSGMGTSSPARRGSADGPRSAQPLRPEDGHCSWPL

T1 sequence (Q15116 21-288): as above
T3 sequence (Q15116 25-167 limits assumed, change not shown): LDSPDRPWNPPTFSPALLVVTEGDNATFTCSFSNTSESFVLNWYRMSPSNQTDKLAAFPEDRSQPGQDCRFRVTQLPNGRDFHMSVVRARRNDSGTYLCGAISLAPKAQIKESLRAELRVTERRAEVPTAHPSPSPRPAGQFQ
T2 sequence (Q15116 25-170 limits assumed): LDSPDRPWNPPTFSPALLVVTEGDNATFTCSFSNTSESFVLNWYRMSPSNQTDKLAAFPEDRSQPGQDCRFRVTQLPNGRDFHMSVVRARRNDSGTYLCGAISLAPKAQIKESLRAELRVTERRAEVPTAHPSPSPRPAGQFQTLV
Sequence of human PD-1 on primary human CD4+ T cells (Q15116 21-288): as the sequence (Q15116 21-288) above

EC50 (M), reporter assay [6] [M] | EC50 (M), human PD-1 reporter gene assay [7] [M] | Kd [8] [nM] | koff [8] [s⁻¹] | kon [8] [M⁻¹ s⁻¹] | Binder | also measured
– | – | – | – | – | Humabody® 1.64 (VHH, human VH single domain antibody) VHH: EVQLVESGGGLVKPGGSLRLSCAASGFTFSDSSMTWMRQAPGKGLEWVSYISSGGGVKFYADSVKGRFTISRDNAKNSLYLQMNSLRADDTAVYYCAREAPLRLGESPHDAFDISGQGTMVTVSS | Reporter Assay EC50 [1]: 25 nM; IC50 [2]: 9 nM; IC50 [3]: 5.8 nM; IC50 (read off the curve) [4]: ~0.8 nM; IC50 (read off the curve) [5]: ~0.9 nM
8.4e-10 | 8.4e-10 | 0.0171 | 1.32e-05 | 773000 | 1.57-6GS-1.57 (other, bivalent construct of two VH domains in one chain) QVQLVESGGGLVKPGGSLRLSCAASGFTFSDNSMTWMRQAPGKGLEWVSYISSGGGVIFYADSVKGRFTISRDNAKNSLYLQMNSLRADDTAVYYCAREAPLRLGESPHDAFDISGQGTMVTVSSGGGGSGGGGSGGGGSGGGGSGGGGSGGGGSQVQLVESGGGLVKPGGSLRLSCAASGFTFSDNSMTWMRQAPGKGLEWVSYISSGGGVIFYADSVKGRFTISRDNAKNSLYLQMNSLRADDTAVYYCAREAPLRLGESPHDAFDISGQGTMVTVSS | EC50 (read off the curve) [9]: ~0.2 nM
1e-09 | 1e-09 | 0.0222 | 1.4e-05 | 630000 | 1.57-9GS-1.57 (other, bivalent construct of two VH domains in one chain) QVQLVESGGGLVKPGGSLRLSCAASGFTFSDNSMTWMRQAPGKGLEWVSYISSGGGVIFYADSVKGRFTISRDNAKNSLYLQMNSLRADDTAVYYCAREAPLRLGESPHDAFDISGQGTMVTVSSGGGGSGGGGSGGGGSGGGGSGGGGSGGGGSGGGGSGGGGSGGGGSQVQLVESGGGLVKPGGSLRLSCAASGFTFSDNSMTWMRQAPGKGLEWVSYISSGGGVIFYADSVKGRFTISRDNAKNSLYLQMNSLRADDTAVYYCAREAPLRLGESPHDAFDISGQGTMVTVSS | dissociation rate constant (koff) [10]: 8.4e-05 s⁻¹; koff [10]: 1.14e-07 s⁻¹; kon [10]: 1.36e+06 M⁻¹ s⁻¹
– | – | – | – | – | 1.57-1.57 (protein, part only; not given: Linker of unstated length, part only) VH-linker-VH, part: QVQLVESGGGLVKPGGSLRLSCAASGFTFSDNSMTWMRQAPGKGLEWVSYISSGGGVIFYADSVKGRFTISRDNAKNSLYLQMNSLRADDTAVYYCAREAPLRLGESPHDAFDISGQGTMVTVSSQVQLVESGGGLVKPGGSLRLSCAASGFTFSDNSMTWMRQAPGKGLEWVSYISSGGGVIFYADSVKGRFTISRDNAKNSLYLQMNSLRADDTAVYYCAREAPLRLGESPHDAFDISGQGTMVTVSS | IC50 (read off the curve) [11]: 0.9 nM
